The term Kd denotes the free concentration of one partner at which half of the binding sites on the other are occupied at equilibrium, for simple one-to-one binding. Read a high Kd as a looser complex.

Positions count from the first letter of the chain named.

For assay [1], the target named is T1, human TGFβ1 (human, UniProt P01137 279-390).
T1 construct: also called TGFβ1 homodimer
Kind of assay: cell-based or functional assay.

Assay [2] addresses T1, human TGFβ1. Description: SPR (Biacore 3000), TGFβ1 amine-coupled to the chip, GC1008 IgG as analyte, 1:1 model, average of more than 25 assays. The protocol: (§1) Additionally, the TGFβ isoform binding affinity of the GC1008 antibody was measured using a Biacore® 3000 (GE Healthcare) instrument. TGFβ1 and TGFβ2, produced in-house, were diluted to ˜1 μg/mL in 10 mM acetate, pH 4.5, and TGFβ3 (R&D Systems) was diluted to ˜2 μg/mL in 10 mM acetate, pH 4.0. Flowcells 2, 3, and 4 of a CMS sensor chip were covalently immobilized with 50 to 100 RU of TGFβ1, TGFβ2, and TGFβ3, respectively, using the standard amine coupling kit from GE Healthcare. Flowcell 1 was used as a control surface. […] The surface was regenerated with two 30 sec injections of 40 mM HCl at 75 μL/min. The sensorgrams were fit using a 1:1 binding model after subtraction of buffer and control flowcell refractive index changes with the BIA Evaluation Software Kit (GE Healthcare). The KD's shown in TABLE 6 are an average of more than 25 independent assays.
On the technique in general: In SPR one partner is held on a chip, and binding of the other changes the refractive index at the surface.

Assay [3] deals with T2, human TGFβ2 (human, UniProt P61812 303-414).
T2 construct: also called TGFβ2 homodimer
T2 sequence: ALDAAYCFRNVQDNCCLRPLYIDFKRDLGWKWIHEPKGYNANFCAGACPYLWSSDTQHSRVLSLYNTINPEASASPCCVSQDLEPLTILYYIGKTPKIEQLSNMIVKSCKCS
Kind of assay: SPR (Biacore 3000), TGFβ2 amine-coupled to the chip, GC1008 IgG as analyte, 1:1 model, average of more than 25 assays. The protocol:
as §1

Assay [4] has as its target T3, human TGFβ3 (human, UniProt P10600 301-412).
T3 sequence: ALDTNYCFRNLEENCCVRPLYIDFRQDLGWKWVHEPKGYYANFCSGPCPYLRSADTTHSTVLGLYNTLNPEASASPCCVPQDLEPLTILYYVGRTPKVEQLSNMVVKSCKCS
Description: SPR (Biacore 3000), TGFβ3 amine-coupled to the chip, GC1008 IgG as analyte, 1:1 model, average of more than 25 assays. The protocol:
as §1

The target in assay [5] is T3, human TGFβ3. Kind of assay: Biacore, top 2 concentrations only (90, 30 nM), 1:1 global fit, vs wt GC1008. The protocol: (§2) In FIG. 6C, seventeen mutants were selected and scaled up to produce sufficient amount of purified protein for KD (equilibrium constant=kd/ka) analysis by Biacore. Multiple concentrations (90, 30, 10 and 3.33 nM) were used in duplicate on the 150 RU level TGFβ1, 2, and 3 immobilized surfaces. KD was calculated using global curve fitting analysis for a 1-to-1 Langmuir binding model. The experimental data from all four concentrations were used for calculation except for I54N and I54R mutants, where only the top 2 concentrations were used. The fold changes in KD were compared to the fold changes in kd (off rate) presented in FIG. 6B, and a heat map was generated for visualization. Similar fold changes were observed from the two data sets, confirming the validity of using kd as a parameter for screening of 155 single mutants as shown in FIG. 6B.

Assay [6] has as its target T1, human TGFβ1. Described as above. The protocol: as §2
The target of assay [7] is T2, human TGFβ2. Described as above. The protocol:
as §2

Assay [8] deals with T3, human TGFβ3. Description: Biacore off-rate vs wt GC1008, 50 nM. The essentials:
(§3)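 Surface plasmon resonance on a Biacore 3000 measured how fast purified antibody variants dissociated from TGFβ isoforms immobilized at about 100 RU. Variants carried single heavy- or light-chain substitutions and were produced by transient Expi293F transfection with Protein A cleanup. Samples at 50 nM were tested in duplicate, and each variant kd was divided by the wild-type control kd to give fold change.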

The target in assay [9] is T1, human TGFβ1. Kind of assay: Biacore off-rate vs wt GC1008, 50 nM. Put shortly:
as §3

Assay [10] concerns the target T2, human TGFβ2. Description: Biacore off-rate vs wt GC1008, 50 nM. Put shortly: as §3
Assay [11] deals with T3, human TGFβ3. Kind of assay: Biacore off-rate vs wt GC1008. The source says:
(§4) Plasmids encoding either the GC1008 heavy chain or light chain were used as a template in PCR-based mutagenesis reactions. Mutations to the encoding DNA were made to create 155 single amino acid substitutions of the encoded heavy chain amino acid sequence and one single amino acid substitution of the encoded light chain amino acid sequence. A QuikChange® Lightning Site-Directed Mutagenesis kit (Agilent Technologies, Santa Clara Calif.) was used according to the manufacturer's instructions to create DNA mutations using a set of forward and reverse primers, either designed for a specific amino acid or for all 20 amino acids with a degenerate codon (NNK). After sequencing confirmation, identified mutant DNA was paired with a wild-type light or heavy chain DNA for transfection into an Expi293F™ host cell suspension (Life Techonologies Corp., Grand Island, N.Y.). At 4 days post-transfection, conditioned media (1 mL) was harvested and purified using a 1 mL Protein A PhyTip® column (PhyNexus, Inc., San Jose, Calif.) and a PureSpeed™ 12-channel pipette (Rainin Instrument LLC, Oakland, Calif.). Purified variant antibody samples were analyzed in duplicate on a Biacore® 3000 (GE Healthcare) at 50 nM concentrations, using the 100 RU level TGFβ1, 2, and 3 immobilized surfaces. The off-rate (kd) of the variants was divided by the kd of the wild-type control to obtain the fold change in the kd. […] A heat map was generated to visualize the results. Variants that completely lost affinity for TGFβ were shown in red without numbers.

Assay [12] addresses T1, human TGFβ1. Kind of assay: Biacore off-rate vs wt GC1008.
Description: as §4

Assay [13] has as its target T2, human TGFβ2. Kind of assay: Biacore off-rate vs wt GC1008.
Description: as §4

T1 sequence (P01137 279-390 limits assumed): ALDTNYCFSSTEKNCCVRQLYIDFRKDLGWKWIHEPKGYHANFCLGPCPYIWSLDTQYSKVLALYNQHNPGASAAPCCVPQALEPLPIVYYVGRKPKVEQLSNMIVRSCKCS

For 1D11.16 (antibody), in the assay with human TGFβ1 [1], the % neutralization in MLEC proliferation assay at 91 pM antibody turned out to be 12%.

B1: GC1008 (antibody, human IgG4, V domains shown)
VH: QVQLVQSGAEVKKPGSSVKVSCKASGYTFSSNVISWVRQAPGQGLEWMGGVIPIVDIANYAQRFKGRVTITADESTSTTYMELSSLRSEDTAVYYCASTLGLVLDAMDYWGQGTLVTVSS
VL: ETVLTQSPGTLSLSPGERATLSCRASQSLGSSYLAWYQQKPGQAPRLLIYGASSRAPGIPDRFSGSGSGTDFTLTISRLEPEDFAVYYCQQYADSPITFGQGTRLEIK
notes: also called GC1008 antibody; wild-type control
As to B1, the Kd with human TGFβ1 [2] stood at 1.7 nM; with human TGFβ2 [3], 3 nM; with human TGFβ3 [4] it was 2 nM.

B2: I54N (antibody, V domains shown)
VH: B1 VH with I54N
VL: B1 VL
notes: GC1008 IgG4 variant
In the case of B2, the “KD mutant/KD wt” value in the assay with human TGFβ3 [5] stood at 13.1; with human TGFβ1 [6], 7; with human TGFβ2 [7], 4.5. Besides, the values for the kd var/kd wt with human TGFβ3 [8], with human TGFβ1 [9] and with human TGFβ2 [10] were 4.3, 4.9 and 2.4, respectively. Also, the kd mutant/kd wt in the assay with human TGFβ3 [11] was 4.3; with human TGFβ1 [12] it was 4.9; with human TGFβ2 [13], 2.4.

B3: I54R (antibody, V domains shown)
VH: B1 VH with I54R
VL: B1 VL
notes: GC1008 IgG4 variant
As for B3, the “KD mutant/KD wt” value in the assay with human TGFβ3 [5] was found to be 11.4; with human TGFβ1 [6], 11; with human TGFβ2 [7], 5.3. The kd var/kd wt stood at 4.8 with human TGFβ3 [8], 7.6 in the assay with human TGFβ1 [9] and 5.2 with human TGFβ2 [10]. For the same molecule, the kd mutant/kd wt with human TGFβ3 [11] was determined as 4.8; with human TGFβ1 [12], 7.6; with human TGFβ2 [13], 5.2.

The record behind these values is patent US20170342144A1 (Sanofi, published 2017).
